Source: article PMC11482926 (bioRxiv, 2024)

Key:
NEDD8 = NEDD8 (UniProt Q15843 1-76); experiment: NMR titration
ubiquitin = ubiquitin (UniProt P0CG48 1-76); experiment: NMR titration

- Kd (NEDD8): 671 ± 153 µM
- Kd (ubiquitin): 159 ± 9.5 µM
Binder: AAEDQVPCEKCGSLVPVWDMPEHMDYHFALELQKS (domain or fragment) [UBZ domain of Pol η (amino acids 628–662)]
